{"source": "patent US11571459B2", "about": "“Methods for treating cancer using PS-targeting antibodies with immuno-oncology agents” (ONCXERNA THERAPEUTICS, INC., priority 2017, dated 2023)", "key": {"PS [1]": {"test_system": "PS", "assay": "ELISA binding to PS-coated plates", "experimental": "The 3G4 antibody was produced by immunizing mice with autologous, PS-positive endothelial cells, as reported in Ran et al., 2005. The 3G4 antibody was tested for binding to PS in a standard ELISA in the presence and absence of serum, and was initially characterized as being “serum-independent”, i.e., an antibody that binds to PS in the absence of serum.\nIn a follow-on study, the binding of the 2aG4 antibody to PS was tested in an ELISA in the presence of varying concentrations of human β2GPI.\nThese included binding to PS in ELISAs, FACS analyses using PS-positive cells and functional assays in the form of an NFAT surrogate ADCC bioassay (Larson et al., 2013)."}, "[2]": {"test_system": "HER2-negative metastatic breast cancer", "assay": "Bavituximab and paclitaxel in HER2-negative metastatic breast cancer", "assay_type": "in vivo, human", "text": "Manageable infusion-related reactions were the most common AE related to bavituximab."}, "[3]": {"details": "in vivo", "protocol": "(§1) Samples were collected from patients in the 0.1 and 0.3 mg/kg dose cohorts before the study, on days 0, 1, 2, 4, 7, 10, 14, and every 7 days from days 21 to 70. Samples were collected from patients in the 1 and 3 mg/kg dose cohorts before the study, on days 0, 1, 2, 4, 7, 14, 21, 22, 23, 25, and every 7 days from days 28 to 56."}, "[4]": {"assay": "Phase Ib study of bavituximab with gemcitabine, paclitaxel plus carboplatin or docetaxel: PK", "assay_type": "in vivo, human", "details": "3 mg/kg weekly with gemcitabine"}, "PS [5]": {"test_system": "PS", "details": "in the presence of serum; cited from earlier work"}, "[6]": {"test_system": "previously untreated stage IV pancreatic cancer", "assay": "Phase II (PPHM 1002) gemcitabine with or without bavituximab", "assay_type": "in vivo, human", "details": "with gemcitabine", "experimental": "The primary objective was to compare the OS of patients among the treatment arms. Secondary objectives included comparing PFS, ORR, DR and safety.\nGemcitabine (1000 mg/m^2) was given on days 1, 8, and 15 of each 28-day cycle (4 weeks) until disease progression or unacceptable toxicities. A total of 70 patients were enrolled to the study. In general, the patient population had very extensive disease burden, which may have reduced the response in both arms.\nThe levels of pre-treatment functional β2GPI ranged from 82.5 to 343.2 μg/ml for all patients. For these 31 patients, the mean level of pre-treatment functional β2GPI (219.2 μg/ml) was consistent with the average reported in the literature."}, "[7]": {"test_system": "previously-treated Stage IIIb/IV non-squamous NSCLC", "assay": "Phase III trial of bavituximab plus docetaxel in NSCLC", "details": "functional β2GPI ≥200 μg/mL", "description": "This global, double-blind Phase III trial was initiated in 2012. Selection criteria were for patients with Stage IIIb/IV non-squamous NSCLC who progressed on platinum-doublet chemotherapy (should have progressed on appropriate targeted therapy if known EGFR or ALK mutation), with ECOG PS 0-1 and prior immunotherapy allowed (ECOG is the performance status scale defined by the Eastern Cooperative Oncology Group). […] The primary endpoint was overall survival (OS) and secondary endpoints included objective response rate (Independent Central Review, ICR), progression-free survival (ICR), safety, PK, Quality of Life (LCSS) and exploratory biomarkers, including immune correlates.\nOS was analyzed by VeriStrat subgroups using Kaplan-Meier statistical methods.\nA single cutoff method was first used to assess the patient β2GPI data.\nThe initial analyses described above prompted further, extensive analyses of the data in 592 evaluable patients. These analyses used a two cutoff method (Klein & Moeschberger, 2003).\nArchival tissue obtained at the time of diagnosis was requested, but not required, in the Phase III trial of Example X. Formalin-fixed paraffin-embedded (FFPE) slides were stained with antibodies for a panel of lymphoid (or tumor) cell markers, as described in Feng et al., 2015: CD3+, CD8+, FoxP3+, PD-L1+, CD163+ and CK+ (cytokeratin, an epithelial carcinoma marker) using a mutliplex (6-plex) quantitative immunohistochemistry (IHC) assay (OPAL®, PerkinElmer, Waltham, Mass., USA) and using DAPI. The PD-L1 antibody used was the rabbit anti-PD-L1 antibody termed E1L3N® XP® (Cell Signaling Technology, (CST), Danvers, Mass., Catalogue #13684; Mahoney et al., 2015). Baseline PD-L1 expression was retrospectively scored on tumor cells (TC, i.e., CK+) and PD-L1 expressing tumor cells were classified according to their percentage within the total number of tumor cells using established assays and classifications (Fehrenbacher et al., 2016), as follows: TC3≥50%; TC2≥5% and ≤50%; TC1≥1% and <5%; and TC0<1%. Cox regression models for PD-L1 IHC subgroup populations were used for correlation with OS.\nKaplan-Meier statistical methods and Cox proportional hazard models were utilized to evaluate and contrast the correlation of peripheral (and intratumoral) IFNγ levels with OS based on a data cut from the Phase III trial (Example X) dated Feb."}, "[8]": {"assay": "Phase I dose escalation study of bavituximab monotherapy in refractory advanced solid tumors: PK, safety", "details": "for AUCinf / Cmax / t1/2 / CL: Mean (CV %)", "protocol": "as §1"}, "[9]": {"details": "irrespective of the presence of serum; cited from earlier work"}, "β2GPI": {"biological_target": "T1, β2GPI (Homo sapiens, UniProt P02749)", "T1 sequence (P02749 20-345)": "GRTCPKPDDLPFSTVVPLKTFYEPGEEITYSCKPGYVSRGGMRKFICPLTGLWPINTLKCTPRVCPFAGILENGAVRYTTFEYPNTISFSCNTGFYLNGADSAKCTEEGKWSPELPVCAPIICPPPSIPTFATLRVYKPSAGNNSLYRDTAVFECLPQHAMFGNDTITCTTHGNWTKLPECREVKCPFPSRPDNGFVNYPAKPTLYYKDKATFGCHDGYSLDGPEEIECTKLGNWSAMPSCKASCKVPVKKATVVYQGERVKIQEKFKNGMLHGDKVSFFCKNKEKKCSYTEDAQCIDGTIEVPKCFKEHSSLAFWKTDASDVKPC", "assay": "Serum β2GPI levels after bavituximab, Phase Ib HCV study", "assay_type": "in vivo", "design": "from tissue; host or cells: serum of human patients", "experimental": "At the 6 mg/kg dose, β2GPI levels fell by 40% relative to the pretreatment levels, to approximately the lower limit of the normal range."}, "[10]": {"test_system": "previously treated non-squamous NSCLC", "experimental": "The primary objective of this study was to compare the ORR (CR+PR) among the treatment arms. Secondary objectives included comparing PFS, DR, OS, safety and PK.\nAdditional blood draws were performed for these patients during Cycles 1 and 2 at specified time points.\nSamples from the NSCLC Phase II trial of Example IX (PPHM 0902) were tested using the functional β2GPI assay of Example XII."}, "[11]": {"test_system": "locally advanced or metastatic breast cancer", "assay": "Phase II bavituximab plus docetaxel in breast cancer", "assay_type": "in vivo, human", "details": "with docetaxel", "text": "This trial was also a Phase II, multicenter trial utilizing a Simon 2-stage design. […] The primary objective was to determine the ORR (CR+PR). Secondary objectives included time to tumor progression, DOR, OS and safety.\nAll patients received one prior chemotherapy regimen."}, "[12]": {"assay": "Administration to rats (safety)", "assay_type": "in vivo", "details": "doses above 10 mg/kg"}, "[13]": {"details": "3 mg/kg weekly with paclitaxel, 14 patients"}, "[14]": {"details": "ITT, all with docetaxel, Bavituximab arm 3 mg/kg"}}, "note": "Read-outs that look alike come from different tables or passages of the source.", "data": [{"substance": "bavituximab", "values": [{"measurement": "binding to PS in ELISA in the absence of serum", "setting": "PS [1]; antibody expressed in CHO cells under serum-free conditions", "result": "binding to PS was lost"}, {"measurement": "binding to phospholipids in standard ELISA", "setting": "PS [1]; phospholipid-coated ELISA plates", "result": "bound at least as well as the murine 3G4"}, {"measurement": "median progression-free survival (PFS)", "setting": "[2]; 3 mg/kg weekly with paclitaxel", "result": 7.3, "unit": "months"}, {"measurement": "overall response rate (ORR)", "setting": "[2]; [13]", "result": 85, "unit": "%"}, {"measurement": "patients having a complete response", "setting": "[2]; [13]", "result": 2, "unit": "patients"}, {"measurement": "tolerability", "setting": "[2]; in combination with paclitaxel", "result": "well tolerated"}, {"measurement": "most common adverse events", "setting": "[2]; with paclitaxel", "result": "Bone pain, fatigue, headache and neutropenia"}, {"measurement": "thrombogenicity", "setting": "[2]; with paclitaxel", "result": "no evidence for increased thrombogenicity"}, {"measurement": "accumulation following multiple-dose administration", "setting": "[3]", "result": "did not exhibit appreciable accumulation or time-dependent PK differences"}, {"measurement": "tolerability", "setting": "[3]", "result": "well tolerated at doses ranging up to 3 mg/kg weekly"}, {"measurement": "accumulation (Cmax and AUC)", "setting": "[4]", "result": "no accumulation of bavituximab following multiple-dose administration"}, {"measurement": "binding to anionic phospholipids (PS, PI, PA, PG, CL)", "setting": "PS [5]", "result": "bind strongly to anionic phospholipids"}, {"measurement": "mOS", "setting": "[6]; functional β2GPI less than 200 μg/mL", "result": 5.3, "unit": "months"}, {"measurement": "mOS", "setting": "[6]; functional β2GPI ≥200 μg/mL", "result": 7.4, "unit": "months"}, {"measurement": "mOS", "setting": "[7]; with subsequent IO", "result": "has yet to be reached"}, {"measurement": "mOS", "setting": "[7]; without subsequent IO", "result": 10.5, "unit": "months"}, {"measurement": "PK linearity", "setting": "[8]; 0.1 to 3 mg/kg", "result": "linear single-dose (day 0) and multiple-dose (days 21 or 42) PK characteristics"}, {"measurement": "maximum tolerated dose", "setting": "[8]; 0.1 to 3 mg/kg weekly", "result": "No maximum tolerated dose was reached"}, {"measurement": "AUCinf", "setting": "[8]; Day 0, 0.1 mg/kg, N=8", "result": "113 (50.1) d μg/mL"}, {"measurement": "Cmax", "setting": "[8]; Day 0, 0.1 mg/kg, N=8", "result": "2.11 (27.3) μg/mL"}, {"measurement": "t1/2", "setting": "[8]; Day 0, 0.1 mg/kg, N=8", "result": "43.9 (48.5) h"}, {"measurement": "AUCinf", "setting": "[8]; Day 0, 0.3 mg/kg, N=6", "result": "241 (39.8) d μg/mL"}, {"measurement": "Cmax", "setting": "[8]; Day 0, 0.3 mg/kg, N=6", "result": "5.13 (42.4) μg/mL"}, {"measurement": "t1/2", "setting": "[8]; Day 0, 0.3 mg/kg, N=6", "result": "39.8 (34.1) h"}, {"measurement": "AUCinf", "setting": "[8]; Day 0, 1.0 mg/kg, N=6", "result": "966 (30.0) d μg/mL"}, {"measurement": "Cmax", "setting": "[8]; Day 0, 1.0 mg/kg, N=6", "result": "16.6 (30.9) μg/mL"}, {"measurement": "t1/2", "setting": "[8]; Day 0, 1.0 mg/kg, N=6", "result": "40.3 (20.2) h"}, {"measurement": "AUCinf", "setting": "[8]; Day 0, 3.0 mg/kg, N=6", "result": "3,017 (50.3) d μg/mL"}, {"measurement": "Cmax", "setting": "[8]; Day 0, 3.0 mg/kg, N=6", "result": 56.4, "unit": "µg/mL"}, {"measurement": "t1/2", "setting": "[8]; Day 0, 3.0 mg/kg, N=6", "result": "37.2 (34.5) h"}, {"measurement": "AUCinf", "setting": "[8]; Day 21, 1.0 mg/kg weekly, N=6", "result": "1,053 (38.0) d μg/mL"}, {"measurement": "CL", "setting": "[8]; Day 21, 1.0 mg/kg weekly, N=6", "result": "1.12 (52.1) mL/kg/d"}, {"measurement": "Cmax", "setting": "[8]; Day 21, 1.0 mg/kg weekly, N=6", "result": "18.7 (31.8) μg/mL"}, {"measurement": "t1/2", "setting": "[8]; Day 21, 1.0 mg/kg weekly, N=6", "result": "46.8 (38.4) h"}, {"measurement": "AUCinf", "setting": "[8]; Day 21, 3.0 mg/kg weekly, N=4", "result": "2,672 (63.4) d μg/mL"}, {"measurement": "CL", "setting": "[8]; Day 21, 3.0 mg/kg weekly, N=4", "result": "1.51 (61.4) mL/kg/d"}, {"measurement": "Cmax", "setting": "[8]; Day 21, 3.0 mg/kg weekly, N=4", "result": "59.6 (27.6) μg/mL"}, {"measurement": "t1/2", "setting": "[8]; Day 21, 3.0 mg/kg weekly, N=4", "result": "46.0 (44.4) h"}, {"measurement": "time concentration remained above 2 μg/mL", "setting": "[8]; dose of 1 mg/kg", "result": 6, "unit": "days"}, {"measurement": "time concentration remained above 2 μg/mL", "setting": "[8]; dose of 3 mg/kg", "result": 7, "unit": "days"}, {"measurement": "binding to neutral phospholipids PC, SM or PE", "setting": "[9]", "result": "no detectable binding"}, {"measurement": "change of β2GPI levels", "setting": "β2GPI; 1 mg/kg", "result": "virtually unchanged"}, {"measurement": "time for β2GPI to return to pre-treatment level", "setting": "β2GPI; 3 mg/kg", "result": "≤ 24", "unit": "h"}, {"measurement": "time for β2GPI to recover to baseline", "setting": "β2GPI; 6 mg/kg", "result": 3, "unit": "days"}, {"measurement": "ORR greater than combined group by", "setting": "[10]; 3 mg/kg", "result": "approximately 50%"}, {"measurement": "median OS longer than combined group by", "setting": "[10]; 3 mg/kg", "result": "approximately 60%"}, {"measurement": "Deaths", "setting": "[10]; [14]", "result": 53.7, "unit": "%"}, {"measurement": "Number of Deaths", "setting": "[10]; [14]", "result": 22}, {"measurement": "Overall Response Rate (CR + PR)", "setting": "[10]; ITT, central review, all with docetaxel, Bavituximab arm 3 mg/kg", "result": 17.1, "unit": "%"}, {"measurement": "pharmacokinetic drug-drug interaction", "setting": "[10]; PK sub-study, 6 patients per arm, cycles 1 and 2", "result": "No clinically relevant pharmacokinetic drug-drug interaction was observed"}, {"measurement": "mOS", "setting": "[10]; functional β2GPI less than 200 μg/mL, bavituximab 3 mg/kg with docetaxel", "result": 9.4, "unit": "months"}, {"measurement": "mOS", "setting": "[10]; functional β2GPI ≥200 μg/mL, bavituximab 3 mg/kg, all with docetaxel", "result": 16.8, "unit": "months"}, {"measurement": "median DOR", "setting": "[11]", "result": 6.1, "unit": "months"}, {"measurement": "median PFS", "setting": "[11]", "result": 7.4, "unit": "months"}, {"measurement": "most common TEAEs of Grade ≥3", "setting": "[11]", "result": "only fatigue, headache, back pain and hypertension were Grade ≥3"}, {"measurement": "CR", "setting": "[11]; 46 patients", "result": 10.9, "unit": "%"}, {"measurement": "PR", "setting": "[11]; 46 patients", "result": 50.0, "unit": "%"}, {"measurement": "objective response", "setting": "[11]; 46 patients", "result": 60.9, "unit": "%"}, {"measurement": "median OS", "setting": "[11]; final analysis", "result": "approximately 20.7 months"}, {"measurement": "doses safely administered", "setting": "[12]", "result": "up to 100 mg/kg"}]}]}
